Experimental data taken from paper PMC6775958 (Pharmacology Research & Perspectives, 2019).
Values joined by “and” are separate entries in the source; they are usually repeats but may differ in a detail not shown here. Equal values may be shown once. Read-outs that look alike come from different tables or passages of the source.

Key:
[1] = conscious dogs, cited from earlier work; for Bioavailability: pilot experiments
[2] = Pharmacokinetics of RHI in anesthetized swine; assay type: in vivo; conditions: 20 IU RHI, mean ± SEM; for Cmax (peak serum concentration), Non-transformed / Tmax (time to peak serum concentration): non-compartmental
[3] = Euglycemic glucose clamp; assay type: in vivo, swine; conditions: 20 IU RHI
[4] = Subcutaneous, natural logarithmic scale, n = 9

In the case of human immunoglobulin G [human IgG], the “Cmax after oral than after subcutaneous administration” value ([1]; oral ODP vs subcutaneous) is listed as “higher”, the “Tmax after oral than after subcutaneous administration” value ([1]; oral ODP vs subcutaneous) is listed as “shorter” and the Bioavailability ([1]; oral delivery by the ODP) is listed as 60%. For the same substance, the Bioavailability ([1]; subcutaneous injections) was 50%.
With recombinant human insulin [RHI] the “Cmax (peak serum concentration), Non-transformed” value ([2]; Intrajejunal wall (ODP), n = 8) was 0.517 ± 0.109 nM, the “Tmax (time to peak serum concentration)” value ([2]; Intrajejunal wall (ODP), n = 8) was 2.32 ± 0.65 h and 2.32 ± 0.7 h and the “Area under the insulin concentration curve” value ([2]; ODP (jejunal wall), n = 8 (abstract)) was 83 ± 18 nmol/L/min. The “Area under the insulin concentration curve” value ([2]; Subcutaneous, n = 9 (abstract)) was 81 ± 10 nmol/L/min, the “AUClast, Log-transformed” value [2, 4] was 2178 ± 49 pmol/L·min and the “Cmax, Log-transformed” value [2, 4] was 5.74 ± 0.17 pmol/L. For the same substance, the “Cmax (peak serum concentration), Non-transformed” value ([2]; Subcutaneous, n = 9) was 0.342 ± 0.05 nM, the “Tmax (time to peak serum concentration)” value ([2]; Subcutaneous, n = 9) was 4 ± 0.517 h and 3.78 ± 0.4 h and the “Biological activity of RHI delivered by the ODP (increased demand for glucose delivery to maintain the euglycemic clamp)” value ([3]; ODP (jejunal wall), anesthetized swine) was “confirmed”. The “Mean AUClast of glucose infusion rates” value ([3]; Subcutaneous, euglycemic clamp, swine, 0-420 min, mean ± SEM, n = 9) was 106 ± 10 g/min^2.
